Starred links: 1 amine or outer side, 2 acyl side, 3 side chain; linkers in the order of their positions; H or OH if unused. Non-standard residues stand in square brackets, D forms with d. Residues, ends and D or L forms follow the SMILES beside them. *: point of attachment. Doxorubicin(3'-N) = COc1cccc2c1C(=O)c1c(O)c3c(c(O)c1C2=O)C[C@@](O)(C(=O)CO)C[C@@H]3O[C@H]1C[C@H](N*)[C@H](O)[C@H](C)O1; PABC = O=C(OCc1ccc(N[*:1])cc1)[*:2]
How the values were obtained:
[1] = test system: SK-BR-3 breast carcinoma cells; test: Cellular accumulation of doxorubicin and Ac-DEVD-PABC-doxorubicin (fluorescence); type: cell-based, human; details: SK-BR-3 cells, 10 μM, 0 to 2 h at 37° C.
Protocol: (§1) FIG. 1. Cellular accumulation of caspase cleavable prodrug Ac-DEVD-PABC-Doxorubicin in SK-BR-3 and MCF7 cells. Uptake of doxorubicin was estimated from a standard curve prepared using known quantities of doxorubicin that were added to the previously untreated cells.
(§2) SK-BR-3 and MCF7 breast carcinoma cells (American Type Culture Collection (ATCC), Rockville, Md.) were cultured in Dulbecco's modified Eagle's medium:Ham's nutrient F-12 (50:50) supplemented with […] glutamine, 100 units/mL penicillin, […] streptomycin (Gibco BRL, Grand Island, N.Y.), and 10% (w/v) bovine fetal serum (Hyclone, Logan, Utah) (cell media) at 37° C., 5% CO2. Adherantly growing cells were detached by treatment with phosphate-buffered saline containing 0.05% trypsin, 0.6 mM EDTA (5 min) and then resuspended at 10^6 cells per mL in fresh cell media. Cells were either used directly (“untreated”) or supplemented with doxorubicin or Ac-DEVD-PABC-doxorubicin into a final concentration of 10 μM. […] Fluorescence measurements were then undertaken using a fluorescent plate reader (Fluoroskan, Helsinki, Finland) with absorption and emission wavelengths of 485 and 590 nm respectively. Uptake of doxorubicin was estimated from a standard curve prepared using known quantities of doxorubicin that were added to the previously untreated cells.

[2] = test system: MCF7 breast carcinoma cells; test: as above; type: cell-based, human; details: 10 μM, 0 to 2 h at 37° C.
Protocol: as §1, §2

[3] = target: T1, recombinant commercial caspase 3 (Homo sapiens, UniProt P42574); test: Hydrolysis of Ac-DEVD-pna by caspase 3; type: biochemical
T1 construct: purchased
T1 sequence (P42574 29-175 limits assumed): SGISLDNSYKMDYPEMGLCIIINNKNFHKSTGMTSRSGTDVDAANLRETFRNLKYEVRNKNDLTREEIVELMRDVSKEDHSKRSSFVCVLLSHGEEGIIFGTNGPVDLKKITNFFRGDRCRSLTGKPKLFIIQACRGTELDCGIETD
T1 sequence (P42574 176-277 limits assumed): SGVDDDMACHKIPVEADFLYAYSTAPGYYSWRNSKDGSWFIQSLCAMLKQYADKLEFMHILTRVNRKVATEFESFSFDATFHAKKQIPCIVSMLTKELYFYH
From the text: (§3) The most favorable substrates for caspases 2, 3 and 7 are DEHD (SEQ ID NO:8), DEVD (SEQ ID NO:3) and DEVD (SEQ ID NO:3) respectively. These sequences are very poor substrates for granzyme B which has the preferred substrate IEPD (SEQ ID NO:13) (Thornberry et al., (1997) supra) and for proinflammatory caspases (caspases 1, 4, 5, 11, 12, 13) which have a preference for a large hydrophobic residue at S4 (caspase 1 WEHD (SEQ ID NO:6), caspase 4 (W/L)EHD, caspase 5 (W/L)EHD).

granzyme B = granzyme B (Homo sapiens, UniProt P10144); test: Cleavage of Ac-DEVD-pna by granzyme B; type: biochemical
From the text: as §3

[4] = target: T2, recombinant human caspase 3 (Homo sapiens, UniProt P42574); test: Activation of Ac-DEVD-PABC-taxol by caspase 3 (HPLC); type: biochemical
T2 construct: purchased Calbiochem
T2 sequence (P42574 29-175 limits assumed): T1 sequence (P42574 29-175 limits assumed)
T2 sequence (P42574 176-277 limits assumed): T1 sequence (P42574 176-277 limits assumed)
Protocol: Ac-DEVD-PABC-taxol (35 μM) was incubated with 1 ng recombinant human caspase 3 (Calbiochem) in the presence or absence of the caspase 3 inhibitor, Z-DEVD-FMK (400 μM) (Calbiochem) in phosphate-buffered saline containing 5% (v/v) dimethyl sulfoxide and 45 mM DTT in a total reaction volume of 700 μL. A control reaction was performed in which caspase 3 and inhibitor were omitted. Reactions were incubated for 0 to 2 h at 37° C. and then frozen in dry ice. Reactions were then analyzed by reverse phase HPLC using a Microsorb-MV C18 reverse-phase column (4.6 mm internal diameter×250 mm length, 5 μm particle size, 100 Å pore size) (Rainin) under isocratic conditions. 0.1% (v/v) TFA, 46% (v/v) acetonitrile at a now rate of 1.5 mL/min whilst monitoring the absorbance at 254 nm. The retention times for taxol and Ac-DEVD-PABC-taxol were 13.3 min 10.4 min, respectively.

granzyme B, sequence (P10144 21-247, species assumed): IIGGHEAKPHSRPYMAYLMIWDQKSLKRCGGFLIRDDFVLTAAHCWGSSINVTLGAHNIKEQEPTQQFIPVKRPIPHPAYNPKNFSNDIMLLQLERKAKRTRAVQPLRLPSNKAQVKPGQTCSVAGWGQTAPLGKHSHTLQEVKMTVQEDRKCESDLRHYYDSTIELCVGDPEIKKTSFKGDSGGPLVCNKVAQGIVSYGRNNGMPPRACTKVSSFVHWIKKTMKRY

**Q.** What does the source list for COc1cccc2c1C(=O)c1c(O)c3c(c(O)c1C2=O)C[C@@](O)(C(=O)CO)C[C@@H]3O[C@H]1C[C@H](NC(=O)OCc2ccc(NC(=O)[C@H](CC(=O)O)NC(=O)[C@@H](NC(=O)[C@H](CCC(=O)O)NC(=O)[C@H](CC(=O)O)NC(C)=O)C(C)C)cc2)[C@H](O)[C@H](C)O1 [Ac-DEVD-PABC-Doxorubicin, Ac-DEVD-PABC-doxorubicin] (Ac-DEVD[PABC]-{Doxorubicin(3'-N)})?
**A.** accumulation inside cells [1]: did not; accumulation inside cells [2]: did not

**Q.** Which “hydrolysis by caspase 3” value [3] does the source give for “acetyl-L-Asp-L-Glu-L-Val-L-Asp-p-nitroanilide [Ac-DEVD-pna]” here?
**A.** Its value is “readily hydrolyzed”.

**Q.** And the “cleavage by granzyme B” value (granzyme B)?
**A.** The value was “no detectable cleavage”.

**Q.** How did the “activation by caspase 3 (conversion to taxol)” value ([4]; 35 μM prodrug, 1 ng caspase 3) turn out when “Ac-DEVD-PABC-paclitaxel [Ac-DEVD-PABC-taxol]” was run?
**A.** Its value is “efficiently activated”.

**Q.** What about the “Conversion (%)” value ([4]; Caspase 3 + inhibitor (Z-DEVD-FMK 400 μM), incubation time 0 min) of the same compound?
**A.** Its value is 0%.

**Q.** What about the “Conversion (%)” value ([4]; Caspase 3 + inhibitor (Z-DEVD-FMK 400 μM), incubation time 30 min) of the same compound?
**A.** The value was 0%.

**Q.** And the “Conversion (%)” value ([4]; Caspase 3 + inhibitor (Z-DEVD-FMK 400 μM), incubation time 120 min)?
**A.** The value was 0%.

**Q.** And the “Conversion (%)” value ([4]; Caspase 3, incubation time 0 min)?
**A.** The value was 0%.

**Q.** And the “Conversion (%)” value ([4]; Caspase 3, incubation time 30 min)?
**A.** The value was 65%.

**Q.** What about the “Conversion (%)” value ([4]; Caspase 3, incubation time 120 min) of the same compound?
**A.** The value was 100%.

Reference: patent publication US20070104719A1, “Caspase Activated Prodrugs Therapy” (Genentech, Inc., priority 2000, published 2007)
